Source: article PMC5385344, “Large Diversity of Functional Nanobodies from a Camelid Immune Library Revealed by an Alternative Analysis of Next-Generation Sequencing Data” (Frontiers in Immunology, 2017)
Blank lines part the entries; values can stand above or below the binder they belong to.

Key:
[1] = biological target: full-length human RON expressed on HEK293T cells (HEK293T-hRON) (Homo sapiens, UniProt Q04912)
[2] = biological target: Recombinant extracellular domain of human RON (rhRON) (human, UniProt Q04912)
Recombinant extracellular domain of human RON (rhRON), sequence (Q04912 25-957): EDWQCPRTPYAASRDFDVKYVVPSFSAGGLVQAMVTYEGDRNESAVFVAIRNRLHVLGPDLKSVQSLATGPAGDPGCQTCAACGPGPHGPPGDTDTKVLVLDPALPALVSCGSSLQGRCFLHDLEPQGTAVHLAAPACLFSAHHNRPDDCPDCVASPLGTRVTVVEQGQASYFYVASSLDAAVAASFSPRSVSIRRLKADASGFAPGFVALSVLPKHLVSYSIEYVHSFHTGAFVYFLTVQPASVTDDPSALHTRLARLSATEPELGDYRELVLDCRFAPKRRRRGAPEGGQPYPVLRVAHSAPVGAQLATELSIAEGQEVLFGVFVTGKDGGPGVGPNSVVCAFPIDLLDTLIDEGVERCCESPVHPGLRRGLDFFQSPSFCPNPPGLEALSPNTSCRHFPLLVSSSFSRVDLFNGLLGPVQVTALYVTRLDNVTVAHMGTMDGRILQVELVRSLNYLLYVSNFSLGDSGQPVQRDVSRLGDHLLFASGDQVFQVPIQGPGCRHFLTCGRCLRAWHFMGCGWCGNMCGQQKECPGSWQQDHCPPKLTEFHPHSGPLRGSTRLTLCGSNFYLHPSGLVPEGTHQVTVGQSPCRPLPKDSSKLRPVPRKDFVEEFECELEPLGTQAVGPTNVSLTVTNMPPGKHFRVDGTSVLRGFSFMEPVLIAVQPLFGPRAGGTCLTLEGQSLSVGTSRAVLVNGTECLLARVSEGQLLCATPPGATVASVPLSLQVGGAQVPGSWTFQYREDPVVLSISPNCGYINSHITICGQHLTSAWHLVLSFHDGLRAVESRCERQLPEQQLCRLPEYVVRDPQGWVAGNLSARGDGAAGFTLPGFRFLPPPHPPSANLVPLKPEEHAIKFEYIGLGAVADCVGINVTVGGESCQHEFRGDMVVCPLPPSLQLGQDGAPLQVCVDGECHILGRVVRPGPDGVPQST

full-length human RON expressed on HEK293T cells (HEK293T-hRON), sequence (Q04912 25-1400): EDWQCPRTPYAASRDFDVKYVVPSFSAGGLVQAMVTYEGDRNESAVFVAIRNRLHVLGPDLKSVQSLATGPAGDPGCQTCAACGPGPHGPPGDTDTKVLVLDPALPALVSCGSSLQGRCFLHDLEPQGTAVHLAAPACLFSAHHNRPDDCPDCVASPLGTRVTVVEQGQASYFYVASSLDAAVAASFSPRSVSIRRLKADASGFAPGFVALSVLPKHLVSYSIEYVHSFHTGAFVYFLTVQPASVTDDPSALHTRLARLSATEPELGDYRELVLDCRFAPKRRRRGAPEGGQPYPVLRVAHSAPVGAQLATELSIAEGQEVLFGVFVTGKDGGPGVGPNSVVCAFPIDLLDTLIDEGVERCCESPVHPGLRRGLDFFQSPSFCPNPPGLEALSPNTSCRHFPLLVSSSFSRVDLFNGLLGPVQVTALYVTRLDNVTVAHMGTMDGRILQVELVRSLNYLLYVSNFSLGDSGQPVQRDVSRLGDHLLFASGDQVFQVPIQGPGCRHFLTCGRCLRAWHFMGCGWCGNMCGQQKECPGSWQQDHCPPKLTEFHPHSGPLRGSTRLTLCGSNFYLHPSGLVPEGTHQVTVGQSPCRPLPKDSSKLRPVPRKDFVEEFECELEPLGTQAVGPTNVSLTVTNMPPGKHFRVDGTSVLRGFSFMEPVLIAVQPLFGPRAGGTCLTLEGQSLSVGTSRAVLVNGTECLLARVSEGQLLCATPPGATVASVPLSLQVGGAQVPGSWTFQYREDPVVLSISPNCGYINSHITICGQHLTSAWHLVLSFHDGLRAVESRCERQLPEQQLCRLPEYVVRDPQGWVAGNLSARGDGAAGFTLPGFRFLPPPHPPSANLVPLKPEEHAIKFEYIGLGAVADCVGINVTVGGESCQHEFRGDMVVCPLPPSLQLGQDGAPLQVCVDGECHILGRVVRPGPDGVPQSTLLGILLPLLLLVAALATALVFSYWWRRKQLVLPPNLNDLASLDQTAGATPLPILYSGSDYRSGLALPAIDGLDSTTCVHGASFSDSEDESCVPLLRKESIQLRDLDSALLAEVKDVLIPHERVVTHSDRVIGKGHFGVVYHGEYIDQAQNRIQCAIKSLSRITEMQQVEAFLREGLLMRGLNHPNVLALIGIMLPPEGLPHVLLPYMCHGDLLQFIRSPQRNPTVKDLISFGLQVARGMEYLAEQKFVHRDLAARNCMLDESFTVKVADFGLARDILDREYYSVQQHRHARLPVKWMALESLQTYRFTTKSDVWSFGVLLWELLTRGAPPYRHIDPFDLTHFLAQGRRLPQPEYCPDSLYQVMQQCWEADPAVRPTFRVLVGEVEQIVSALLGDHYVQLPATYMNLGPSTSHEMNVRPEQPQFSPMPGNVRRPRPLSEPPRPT

- binding result [1]: binds
- binding result [2]: binds
B1: 2B10 (VHH)
VHH: EVQLVESGGGLVQAGGSLRLSCATSGISFRLSNMGWYRQAPGKSREFVAEITSGGNWNYADSVKGRFTISRDNAKSTVYLQMNSLKPEDTGVYYCNRLGTPLWGQGTQVTVSS

- binding result [1]: binds
- binding result [2]: binds
B2: 5F06 (VHH)
VHH: EVQLVESGGGLVQAGGSLGLSCAASGRVAMGWFRRPPGQERDFVAAISASGATTYYADSVKGRFTISRDSAKTTVYLQMNSLKPEDTAVYYCAARLSWSSDYRSGGSYEHWGQGTQVTVSS

- binding result [1]: binds
- binding result [2]: binds
B3: 11D08 (VHH)
VHH: EVQLVESGGGLVQPGGSLRLSCAASGFTFSSYWMYWVRQAPGKGLEWVSAISPASGSVDYIDSVKGRFTISRDNAQNTLYLRMNSLKSEDTAIYYCAKDSRRLIRSNYETFGLGTQVTVSS

- binding result [1]: binds
- binding result [2]: binds
B4: 8C03 (VHH)
VHH: EVQLVESGGGFVQAGGSLRLSCAASVRIAMGWFRQAPGKEREFVARISASGGSTEYADSVKGRFTISRDSSKSTAYLQMNSLKPEDTAVYYCAARLWNQREYPYWGQGTQVTVSS

- binding result [1]: binds
- binding result [2]: binds
B5: 2D04 (VHH)
VHH: EVQLVESGGGLVQAGGSLRLSCAASGRIFSVYRVGWFRQAPGKEREIVASINNRNGASTFYADSVKGRFTISRDSAKNTVYLQMRSLRPEDTAVYYCAARDQGTTEYHYWGQGTLVTVSS

- binding result [1]: binds
- binding result [2]: binds
B6: 2A01 (VHH)
VHH: EVQLVESGGGLVQAGGSLRLSCAASSRTFSTYPMAWFRQAPGKEREFVATISRGGITSYYADSVKGRFTISRDNAKNTVYLQMNSLKPEDTAVYYCAQYKASATAYTRGRPDEIVHWGQGTQVTVSS

- binding result [1]: binds
- binding result [2]: binds
B7: 8E08 (VHH)
VHH: EVQLVESGGGLVQPGGSLRLSCAASGFTLDNHAIGWFRRAPGKERERIGCISSSSGTTAYADSVEGRFTISRDNAKNTVYLQMNSLKPEDTAVYYCAARFQGGFLGCTFAPQTFGYWGQGTQVTVSS

- binding result [1]: binds
B8: KY704051 (VHH)
VHH: EVQLVESGGGLVQPGGSLRLSCAASGFAFSYYYMYWVRQAPGKGLEWVSRISPGGGTTYYADSVKGRFTISRDNAKNTLYLQMNSLNSEDTAVYYCAKDNRRLIDSGAYDYRGQGTLVTVSS

- binding result [2]: binds
B9: KY704065 (VHH)
VHH: EVQLVESGGGLVQAGGSLRLSCAVSNTVFRLRTMDWYRQAPEKRREWVATITSDGSTDYVGAVKGRFTISRDNAKSTMYLQMNNVKPEDTAVYYCYTANFWGQGTLVTVSS

- binding result [1]: binds
- binding result [2]: binds
B10: 2C01 (VHH)
VHH: EVQLVESGGGLVQAGGSLRLSCAPSERTFRSDVMGWFRQAPGRGREFVAAIAENGDILTRFEGSAKGRFTISRDNANDTVYLQMSSLKPEDTAIYYCAARWGTITTVSHQYHFWGQGTQVTVSS

- binding result [1]: binds
- binding result [2]: binds
B11: 11A09 (VHH)
VHH: EVQLVESGGGLVQPGGSLRLSCAASGFTFSSYWMYWVRQAPGKGLEWVSAVNTGGGTTDYADSVKGRFTISRDNAKDTLYLQMNSLKYEDTAVYYCARDQRRYIRTTYDYHGQGTLVTVSS

- binding result [1]: binds
- binding result [2]: binds
B12: 8D02 (VHH)
VHH: EVQLVESGGGLVQTGGSLRLSCAASGLTFSDYAMGWFRQAAGKEREFVGVISWGGRHTYYGDFAKGRFTISRENSKNTVYLQMNSLKPEDTAVYTCARKRGMADIAYTHATSYDYWGQGTQVTVSS

- binding result [1]: binds
- binding result [2]: binds
B13: 2C11 (VHH)
VHH: EVQLVESGGGLVQPGGSLRLSCAASGFTFNYYWMYWVRQRPGKGLEWVSAINTGGGTTDYADSVKGRFTISRDNAKSTLYLQMDSLKSEDTAVYYCAKDRRRLIRSEYDYLGQGTQVTVSS

- binding result [1]: binds
- binding result [2]: binds
B14: 5B10 (VHH)
VHH: EVQLVESGGGLVQAGGSLRLSCATSGRYVMGWFRQAPGQEREFVTSISRSGGSTTYADSVKGRFTISRDSAENTVYLQMNSLKPEDTAVYYCAAWSYYGVAYTSTTSPDYWGQGTLVTVSS

- binding result [1]: binds
- binding result [2]: binds
B15: 5B04 (VHH)
VHH: EVQLVKSGGGLVQVGGSLRLSCAASGRTFSSYAMGWFRQAPGKERELVAAINWNGGRTYYADFVKGRFTISRDNAKNTVYLQMNSLKPEDTAVYYCAAGHLTSTGVLHPADYYNWDEYDYWGQGTQVTVSS

- binding result [1]: binds
- binding result [2]: binds
B16: 2F08 (VHH)
VHH: EVQLVESGGGLVQAGGSLRLSCAASGRYPMGWFCQAPGGEREFVAAISRSGASTYYADSVKGRFTIARDSAKNTVYLEMNSLKPEDTAVYYCAAKENYYGDYGLAQNYDYWGQGTQVTVSS

- binding result [1]: binds
- binding result [2]: binds
B17: 2F12 (VHH)
VHH: EVQLVESGGGLVQAGGSLRLSCAASGSSTYEMGWFRQAPGKEREFVAGINWNGGRTYYADSVKGRFTISRDNAKMTVYLQMNSLKPEDTAAYYCSAAYGLRDAFRMYRSEYPYWGQGTQVTVSS

- binding result [1]: binds
- binding result [2]: binds
B18: 8G04 (VHH)
VHH: EVQLVESGGGLVQAGGSLRLSCAASGRTFSVYPMGWFRQAPGKEREFVATISRRGAISYYQDSVKGRFTISRDSANDTVYLQMNSLRPEDTAVYYCAQYKASSSSYTRGRPDEIVYWGQGTQVTVSS

- binding result [2]: binds
B19: KY704063 (VHH)
VHH: EVQLVESGGGLVQPGGSLTLSCVAYGITVPDYPIGWFRQSPGKEREGVSCIRRSGGRIVYSDSAKGRFNTSRDNAENTVYLQMNSLAPEDTAVYYCATKCMVEFGDTTYSDYAGLNYWGKGTLVTVSS

- binding result [1]: binds
- binding result [2]: binds
B20: 11B09 (VHH)
VHH: EVQLVESGGGLVQAGGSLRLSCAASGRTFSNYAMGWFRQAPGKERDFVAAIDWSGDSISYENTVKGRFTISRDNAKNTMYLQMNSLKPEDTAVYFCATRSVGGISTLRRRYDYWGQGTLVTVSS

- binding result [1]: binds
- binding result [2]: binds
B21: 2A02 (VHH)
VHH: EVQLVESGGGTVKAGGSLRLSCAAPRRYHMGWFRQAPGKEREFVTAISSSGGSTSYADSVKGRFTISRDSAKSTVYLQMNSLKPEDTAVYFCAARSGLWMATSTQGHYDYWGQGTQVTVSS

- binding result [1]: binds
- binding result [2]: binds
B22: 8B01 (VHH)
VHH: EVQLVESRGGTVQAGGSLRLSCAASGRTFSNYAAGWFRQAPGKEREFVAGISAKGGVTYYVDFVKGRFTISRDNAKNTVYLQMNSLKPEDTAVYYCAADGSYGTILATIAENSRISLLKDWGQGTLVTVSS
